Experimental data from patent US20030148417.

Legend:
[1] = target: bovine haemoglobin, P01966
[2] = target: Pepstatin A

Sequence of bovine haemoglobin, P01966 (P01966 2-142, chain 1 of 2): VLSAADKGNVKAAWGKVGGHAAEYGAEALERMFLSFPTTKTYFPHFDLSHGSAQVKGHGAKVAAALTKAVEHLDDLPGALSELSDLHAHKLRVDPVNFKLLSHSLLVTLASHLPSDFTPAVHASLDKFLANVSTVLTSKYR
Sequence of bovine haemoglobin, P01966 (chain, as listed by the source, chain 2 of 2): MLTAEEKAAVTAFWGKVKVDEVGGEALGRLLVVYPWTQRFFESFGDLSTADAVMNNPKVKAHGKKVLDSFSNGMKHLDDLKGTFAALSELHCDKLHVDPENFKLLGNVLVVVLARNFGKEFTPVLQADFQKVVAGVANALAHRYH

B1: recombinant TcAP2 protein (aspartic endoproteinase from Theobroma cacao, secreted by Yarrowia lipolytica clone pCY330-33) (protein)
chain: VSNDGLVRIGLKKMKLDPNNRLAARLDSKDGEALRAFIKKYRFRNNLGDSEETDIVALKNYMDAQYYGEIGIGTPTQKFTVIFDTGSSNLWVSSTKCYFSVACYFHEKYKASDSSTYKKDGKPASIQYGTGAISGFFSYDHVQVGDLVVKDQEFIEATKEPGLTFMVAKFDGILGLGFKEISVGDAVPVWYNMIKQGLIKEPVFSFWLNRNVDEEAGGEIVFGGVDPNHYKGKHTYVPVTQKGYWQFDMGDVLIADKPTGYCAGSCAAIADSGTSLLAGPSTVITMINHAIGATGVVSQECKAVVQQYGRTIIDLLIAEAQPQKICSQIGLCTFNGAHGVSTGIESVVDESNGKSSGVLRDAMCPACEMAVVWMQNQVRQNQTQDRILSYVNELCDRVPNPMGESAVDCGSLSSMPTISFTIGGKVFDLTPEEYILKVGEGSEAQCISGFTALDIPPPRGPLWILGDIFMGRYHTVFDFGKLRVGFAEAAHHH
[1]
  hydrolysis of bovine haemoglobin (OPA assay, pH 3, 42 C): 25.8±1.45 pmoles L-leucine/min/mg protein
[2]
  endoprotease activity (hydrolysis of bovine haemoglobin): completely inhibited by 2 µM pepstatin
  pepstatin insensitive activity (hydrolysis of bovine haemoglobin, 2 µM pepstatin): 1.91±1.26 pmoles L-leucine/min/mg protein, 6.65%
